Data on two molecules can be found in US20250179176A1, “ANTI-TIGIT ANTIBODIES AND USES OF THE SAME” (ARCUS BIOSCIENCES, INC., priority 2022, published 2025).

In one data set the test system is CD8+ T cells. Kind of data set: Ki67 on circulating CD8+ T cells (whole blood flow cytometry). It is filed as in vivo, human. As to the method:
Quantitation of Ki-67, a nuclear protein associated with cell cycle, is a common method to evaluate cell proliferation, especially in human samples ex vivo.
Immune cell profiling was conducted in whole blood by flow cytometry. For patients enrolled in the study described in Example 5 or Example 6, Ki67 changes on CD8^+ T cells were evaluated in whole blood by similar methods. Extracellular staining cocktails which included (minimally) CD3, CD8, and CD56 antibodies were added to 500 ul of whole blood and incubated on ice for 30 minutes. These markers were used to identify CD8^+ T cells (CD3^+CD56^− CD8^+) in both studies. For patients in the study of Example 6, extracellular cocktails also included CD45RA, CD39, and CD103 antibodies to identify an antigen-experienced memory CD8^+ T cell population (CD3^+CD56^−CD8^+CD45RA^−CD39^+CD103^+). Following extracellular staining, all blood samples were fixed and lysed using 1×BD FACSLyse buffer for 20 minutes on ice and then stored at −80° C. for up to 6 weeks. Upon thawing, samples were centrifuged at 400×g for 5 min to remove the lysing solution, washed in PBS, and then fixed and permeabilized in 100 ul of 1×FoxP3 Fixation Buffer for 1 hour at room temperature. […] The maximum fold change observed with the first cycle of treatment (between C1D1 and C2D29) was also determined for Ki67 expression on CD8^+ T cells.
Background: A flow cytometer gives signals particle by particle.

A short description of data set [1]: Phase 2 study in front-line NSCLC (ARC-7), safety.
The subject of data set [2] is metastatic (Stage IV) squamous or non-squamous NSCLC. Kind of data set: Phase 2 study in front-line NSCLC (ARC-7), efficacy. It is filed as in vivo, human. The source says:
Participants were randomized 1:1:1 across the three study arms and treated until disease progression or loss of clinical benefit. […] Patients in the zimberelimab monotherapy arm with confirmed progression had the option to cross over to the triplet arm. Co-primary endpoints were objective response rate (ORR) and progression-free survival (PFS). Secondary endpoints included safety, duration of response and disease control rates. Additional assessments of response/on-treatment effects may include measures of immune cell activation, immune cell suppression, immune cell proliferation, T cell receptor dynamics, and/or increases in memory and antigen experienced T cells in periphery or tumor microenvironment, as well as molecular response assessment by ctDNA dynamics and/or changes in tumor cell markers or gene expression.
Further data were obtained from an interim analysis with a data cutoff of Aug. 31, 2022.

For data set [3], the system named is CD4+ T cells, CD8+ T cells, and Tregs. Kind of data set: Peripheral T cell absolute counts and frequencies (Trucount, flow cytometry). Format: in vivo, human. As to conditions: humans. As to the method:
White blood cell counts for 11 patients have been followed for up to 85 days of treatment. See Table 17 for additional patient details. Cell counts were assessed in pre- and post-dose whole blood patient samples using commercially available Trucount tubes (BD Biosciences). CD45, CD3, CD4, CD8, CD25, and CD127 antibodies were used to detect peripheral blood T cells and Tregs using flow cytometry. The antibody cocktail and […] of whole blood was added to Trucount tubes, vortexed, and incubated for 15 minutes at room temperature. The stained whole blood was lysed using 900µl of 1×BD FACs Lyse solution followed by vortexing, and incubation for 15 minutes at room temperature. Absolute counts were calculated as detailed in the Trucount technical data sheet. Briefly, the absolute count of a cell population (A) was obtained by dividing the number of positive cells events (X) by the number of bead events (Y), and then multiplying by the BD Trucount bead concentration (N/V, where N is the number of beads per test and V is the test volume). A=X/Y×N/V. Absolute cell count was then reported per μl of whole blood (WB).
Absolute cell counts were not measured in all patients due to limited sample collection. […] Frequencies of different populations were determined relative to a parent population and each timepoint was normalized to baseline (C1D1 predose) to compute fold change.

A short description of data set [4]: Population PK model and simulations. More on the design: species or system human. The protocol: All available PK data from this study were combined in a population PK model. […] The population PK model confirmed that the PK of domvanalimab was dose-linear over the dose range and consistent across the dosing regimens.
Simulations were run with the model of n=500 patients each at 10 mg/kg Q2W, 15 mg/kg Q3W, and 20 mg/kg Q4W dosing regimens for 24 weeks.

The mark [5] stands for this setting: efficacy population, later cutoff.
Setting [6] is: all domvanalimab containing arms, 74 participants, initial cutoff.

Turning to “zimberelimab: antagonistic PD-1 antibody, immune checkpoint inhibitor”, the “proliferating CD8+ T cells” value in the data set with CD8+ T cells (patients of the Example 6 study, PD-L1hi NSCLC) is given as “Increases”. In addition, in data set [1] (Table 4, initial cutoff), the “Any TEAEs Leading to Death” value is reported as 3 (8) n (%). In data set [1] (Table 7, initial cutoff), the “SAE COVID-19, events” value came to 0 n and the “SAE COVID-19, subjects” value was 0 n (%). In addition, in data set [1] (Table 10, later cutoff), the “Any TEAEs Leading to Death” value is given as 3 (6.0) n (%) and the “Any TEAEs Leading to Death, related to study treatment” value was 1 (2.0) n (%). Besides, the “Grade 5 TEAEs related to study treatment (per physician assessment)” value in data set [1] (safety population (149 patients)) is reported as “interstitial lung disease”. Besides, in data set [2] (ITT-13, cutoff Aug. 31, 2022), the “patients with partial response remaining on treatment” value is 5 n and the “patients with stable disease remaining on treatment” value turned out to be 3 n. In addition, in data set [2] (Kaplan Meier, ITT-13), the “6-month progression-free survival rate” value was 43% and the “median PFS” value came to 5.4 months. Further, in data set [2] (setting [5]), the “6-mo PFS % (95% CI)” value is given as 43 (27, 59) %; the “CORR (confirmed Objective Response Rate, per RECIST v1.1)” value is given as 12 (27) n (%); the “Complete Response” value is reported as 0 (0) n (%); the “Not Evaluable” value is 7 (16) n (%). For the same molecule, in data set [2] (setting [5]), the “Partial Response” value is on record as 12 (27) n (%), the “Progressive Disease” value is 11 (25) n (%), the “Stable Disease” value was 14 (32) n (%) and the “median PFS” value amounted to 5.4 mo.

B1: domvanalimab: anti-TIGIT antibody with engineered IgG1 Fc, reduced FcγR binding; heavy chain SEQ ID NO: 12, light chain SEQ ID NO: 13 (antibody)
heavy: EVQLVESGGGLVQPGGSLRLSCAASGFTFSNFGMHWVRQAPGKGLEWVAFISSGSSSIYYADTVKGRFTISRDNAKNSLYLQMNSLRAEDTAVYYCARMRLDYYAMDYWGQGTMVTVSSASTKGPSVFPLAPSSKSTSGGTAALGCLVKDYFPEPVTVSWNSGALTSGVHTFPAVLQSSGLYSLSSVVTVPSSSLGTQTYICNVNHKPSNTKVDKKVEPKSCDKTHTCPPCPAPEAAGGPSVFLFPPKPKDTLMISRTPEVTCWVDVSHEDPEVKFNWYVDGVEVHNAKTKPREEQYNSTYRWSVLTVLHQDWLNGKEYKCKVSNKALPAPIEKTISKAKGQPREPQVYTLPPSRDELTKNQVSLTCLVKGFYPSDIAVEWESNGQPENNYKTTPPVLDSDGSFFLYSKLTVDKSRWQQGNVFSCSVMHEALHNHYTQKSLSLSPGK
light: DIQMTQSPSSLSASVGDRVTITCRASKSISKYLAWYQQKPGKAPKLLIYSGSTLQSGVPSRFSGSGSGTDFTLTISSLQPEDFATYYCQQHNEYPWTFGGGTKVEIKRTVAAPSVFIFPPSDEQLKSGTASWCLLNNFYPREAKVQWKVDNALQSGNSQESVTEQDSKDSTYSLSSTLTLSKADYEKHKVYACEVTHQGLSSPVTKSFNRGEC
As for B1, in the data set with CD8+ T cells (patients of the Example 5 study), the “proliferative marker (Ki67) on circulating CD8+ T cells” value is recorded as “increases”. In addition, the “fatal case of myocarditis related to study treatment” value in data set [1] (74 participants, case received domvanalimab and zimberelimab) is 1.3%. Besides, in data set [1] (74 participants, case received domvanalimab, zimberelimab and etrumadenant), the “fatal case of pneumonitis related to study treatment” value is 1.3%. Besides, in data set [1] (setting [6]), the “TEAE leading to domvanalimab dose modification/interruption” value came to 27.0%, the “discontinued domvanalimab due to a TEAE” value is given as 4.0%, the “participants with TEAE Grade ≥3” value was found to be 45.9% and the “participants with TEAEs Grade ≥3 related to domvanalimab” value stood at 10.8%. In data set [1] (setting [6]), the “participants with at least 1 TEAE” value came out at 93.2%, the “participants with serious adverse events” value was determined as 25.6%, the “participants with treatment related AE related to domvanalimab” value came out at 56.7% and the “participants with treatment related SAEs” value was found to be 8.3%. Moreover, in data set [3], the “depletion of peripheral T cells” value was “does not deplete”. For the same molecule, in data set [4] (estimated based on the population PK model), the terminal half-life is given as 19.9 days. The volume of distribution result in data set [4] (population PK model) was “approximated plasma volume”. Further, the “dose linearity of PK” value in data set [4] (population PK model, 0.5-20 mg/kg, Q2W, Q3W, Q4W) is “dose-linear”.
